# According to the supplement of paper PMC11780869:
# Test system: Bacillus subtilis
# Assay: cleaved RNA product abundance (RNA/gDNA barcode ratio) relative to median wild-type variant (ratio to wild type); higher = more accumulation of the downstream cleavage product
# Conditions: cleavage site: cggR-gapA (positions -7 to +36 mutated)
# Method in brief: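 Cleaved product abundance is expressed as the RNA:gDNA barcode ratio per construct, scaled to the median construct carrying the unmutated site. The constructs were barcoded, mutagenized RNase Y cleavage-site windows in truncated aprE or tetM reporter mRNAs integrated into the B. subtilis chromosome. Cultures grew in LB at 37°C from OD600 0.0003 to 0.3 before cleaved RNA was gel-selected and barcode-sequenced.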
# [1] = experiment (reporter, strain, medium): exp 4a: truncated aprE reporter, strain BJT201 with 2% xylose (RNase J1 expressed)
# [2] = experiment (reporter, strain, medium): exp 2b: truncated aprE reporter, strain BJT200
Sequence,cleaved RNA product abundance [1],"cleaved RNA product abundance (experiment (reporter, strain, medium): exp 6: tetM reporter, strain 168)",cleaved RNA product abundance [2]
ACAGACGAAGGAGCCGCAAAGAAGTTATTAAAGGATGAATAATCCCTCAATATACATATCTCTCACTTATTTAAA,0.17,0.136,–
ACAGACGAAGGAGCCGCAAAGAAGTTATTAAAGGATGAATAATCCCTCAATATAGATATCTCTCACTTATTTAAA,0.0996,–,–
ACAGACGAAGGAGCCGCAAAGAAGTTATTAAAGGATGAATAATCCCTCAATATATATATCTCTCACTTATTTAAA,0.16,–,–
ACAGACGAAGGAGCCGCAAAGAAGTTATTAAAGGATGAATAATCCCTCAATATGAATATCTCTCACTTATTTAAA,0.0586,–,0.094
ACAGACGAAGGAGCCGCAAAGAAGTTATTAAAGGATGAATAATCCCTCAATATTAATATCTCTCACTTATTTAAA,0.0494,–,–
ACAGACGAAGGAGCCGCAAAGAAGTTATTAAAGGATGAATAATCCCTCAATGTAAATATCTCTCACTTATTTAAA,0.0731,–,0.0901
ACAGACGAAGGAGCCGCAAAGAAGTTATTAAAGGATGAATAATCCCTCAATTTAAATATCTCTCACTTATTTAAA,0.0949,–,0.088
ACAGACGAAGGAGCCGCAAAGAAGTTATTAAAGGATGAATAATCCCTCACTATAAATATCTCTCACTTATTTAAA,0.152,–,0.113
ACAGACGAAGGAGCCGCAAAGAAGTTATTAAAGGATGAATAATCCCTCAGTATAAATATCTCTCACTTATTTAAA,0.122,–,–
ACAGACGAAGGAGCCGCAAAGAAGTTATTAAAGGATGAATAATCCCTCATTATAAATATCTCTCACTTATTTAAA,0.245,–,–
ACAGACGAAGGAGCCGCAAAGAAGTTATTAAAGGATGAATAATCCCTCCATATAAATATCTCTCACTTATTTAAA,0.0862,–,–
ACAGACGAAGGAGCCGCAAAGAAGTTATTAAAGGATGAATAATCCCTCCTTATAAATATCTCTCACTTATTTAAA,0.0791,–,–
ACAGACGAAGGAGCCGCAAAGAAGTTATTAAAGGATGAATAATCCCTCGATATAAATATCTCTCACTTATTTAAA,0.0487,–,0.0861
ACAGACGAAGGAGCCGCAAAGAAGTTATTAAAGGATGAATAATCCCTCTATATAAAAATCTCTCACTTATTTAAA,0.229,–,–
ACAGACGAAGGAGCCGCAAAGAAGTTATTAAAGGATGAATAATCCCTCTATATAAATATCTCTCACTTATTTAAA,0.18,–,0.132
ACAGACGAAGGAGCCGCAAAGAAGTTATTAAAGGATGAATAATCCCTGAATATAAATATCTCTCACTTATTTAAA,0.171,–,0.133
ACAGACGAAGGAGCCGCAAAGAAGTTATTAAAGGATGAATAATCCCTTAATATAAATATCTCTCACTTATTTAAA,1.06,–,1.16
ACAGACGAAGGAGCCGCAAAGAAGTTATTAAAGGATGAATAATCCGTCAATATAAATATCTCTCACTTATTTAAA,0.161,–,0.16
ACAGACGAAGGAGCCGCAAAGAAGTTATTAAAGGATGAATAATCCTTCAATATAAATATCTCTCACTTATTTAAA,0.86,–,0.646
ACAGACGAAGGAGCCGCAAAGAAGTTATTAAAGGATGAATAATCTCTCAATATAAATATCTCTCACTTATTTAAA,0.149,–,–

Sequence,cleaved RNA product abundance [1],"cleaved RNA product abundance (experiment (reporter, strain, medium): exp 6: tetM reporter, strain 168)",cleaved RNA product abundance [2]
ACAGACGAAGGAGCCGCAAAGAAGTTATTAAAGGATGAATAATGCCTCAATATAAATATCTCTCACTTATTTAAA,0.087,–,0.118
ACAGACGAAGGAGCCGCAAAGAAGTTATTAAAGGATGAATAATTCCTCAATATAAATATCTCTCACTTATTTAAA,0.172,–,0.0999
ACAGACGAAGGAGCCGCAAAGAAGTTATTAAAGGATGAATACTCCCTCAATATAAATATCTCTCACTTATTTAAA,0.108,–,0.117
ACAGACGAAGGAGCCGCAAAGAAGTTATTAAAGGATGAATAGTCCCTCAATATAAATATCTCTCACTTATTTAAA,–,–,0.124
ACAGACGAAGGAGCCGCAAAGAAGTTATTAAAGGATGAATATTCCCTAAATATAAATATCTCTCACTTATTTAAA,–,–,0.0923
ACAGACGAAGGAGCCGCAAAGAAGTTATTAAAGGATGAATATTCCCTCAATATAAATATCTCTCACTTATTTAAA,0.183,–,–
ACAGACGAAGGAGCCGCAAAGAAGTTATTAAAGGATGAATCATCCCTCAATATAAATATCTCTCACTTATTTAAA,0.212,–,0.178
ACAGACGAAGGAGCCGCAAAGAAGTTATTAAAGGATGAATGATCCCTCAATATAAATATCTCTCACTTATTTAAA,0.155,–,0.0792
ACAGACGAAGGAGCCGCAAAGAAGTTATTAAAGGATGAATTATCCCTCAATATAAATATCTCTCACTTATTTAAA,0.149,–,0.14
ACAGACGAAGGAGCCGCAAAGAAGTTATTAAAGGATGACTAATCCCTCAATATAAATATCTCTCACTTATTTAAA,0.133,–,0.0975
ACAGACGAAGGAGCCGCAAAGAAGTTATTAAAGGATGAGTAATCCCTCAATATAAATATCTCTCACTTATTTAAA,0.202,–,–
ACAGACGAAGGAGCCGCAAAGAAGTTATTAAAGGATGATTAATCCCTCAATATAAATATCTCTCACTTATTTAAA,0.184,–,0.122
ACAGACGAAGGAGCCGCAAAGAAGTTATTAAAGGATGCATAATCCCTCAATATAAATATCTCTCACTTATTTAAA,0.312,–,–
ACAGACGAAGGAGCCGCAAAGAAGTTATTAAAGGATGGATAATCCCTCAATATAAATATCTCTCACTTATTTAAA,0.141,–,–
ACAGACGAAGGAGCCGCAAAGAAGTTATTAAAGGATGTATAATCCCTCAATATAAATATCTCTCACTTATTTAAA,0.177,–,–
ACAGACGAAGGAGCCGCAAAGAAGTTATTAAAGGATTAATAATCCCTCAATATAAATATCTCTCACTTATTTAAA,0.205,–,0.154
ACAGACGAAGGAGCCGCAAAGAAGTTATTAAAGGCTGAATAATCCCTCAATATAAATATCTCTCACTTATTTAAA,0.0571,–,0.0927
ACAGACGAAGGAGCCGCAAAGAAGTTATTAAAGGGATGAATAATCCCTCAATATAAATATCTCTCACTTATTTAA,0.35,–,0.283
ACAGACGAAGGAGCCGCAAAGAAGTTATTAAAGGGTGAATAATCCCTCAATATAAATATCTCTCACTTATTTAAA,0.202,–,–
ACAGACGAAGGAGCCGCAAAGAAGTTATTAAAGGTTGAATAATCCCTCAATATAAATATCTCTCACTTATTTAAA,0.0853,–,–

Sequence,cleaved RNA product abundance [1],"cleaved RNA product abundance (experiment (reporter, strain, medium): exp 6: tetM reporter, strain 168)",cleaved RNA product abundance [2]
ACAGACGAAGGAGCCGCAAAGAAGTTATTAAAGTATGAATAAACCCTCAATATAAATATCTCTCACTTATTTAAA,–,–,0.102
ACAGACGAAGGAGCCGCAAAGAAGTTATTAAAGTATGAATAATCCCTCAATATAAATATCTCTCACTTATTTAAA,0.124,–,0.0922
ACAGACGAAGGAGCCGCAAAGAAGTTATTAAATGATGAATAATCCATCAATATAAATATCTCTCACTTATTTAAA,0.162,–,–
ACAGACGAAGGAGCCGCAAAGAAGTTATTAAATGATGAATAATCCCTCAATATAAATATCTCTCACTTATTTAAA,0.1,–,0.0939
ACAGACGAAGGAGCCGCAAAGAAGTTATTAAATGATGAATAATCCCTCAATATATATATCTCTCACTTATTTAAA,0.13,–,–
ACAGACGAAGGAGCCGCAAAGAAGTTATTAACAGATGAATAATCCCTCAATATAAATATCTCTCACTTATTTAAA,0.0984,–,0.0822
ACAGACGAAGGAGCCGCAAAGAAGTTATTAACCGATGAATAATCCCTCAATATAAATATCTCTCACTTATTTAAA,0.0751,–,0.0926
ACAGACGAAGGAGCCGCAAAGAAGTTATTAACGAATGAATAATCCCTCAATATAAATATCTCTCACTTATTTAAA,0.0881,–,0.0836
ACAGACGAAGGAGCCGCAAAGAAGTTATTAACGAATTAATAATCCCTCAATATAAATATCTCTCACTTATTTAAA,0.0842,–,–
ACAGACGAAGGAGCCGCAAAGAAGTTATTAACGCATGAATAATCCCTCAATATAAATATCTCTCACTTATTTAAA,0.0743,–,–
ACAGACGAAGGAGCCGCAAAGAAGTTATTAACGGAAGAATAATCCCTCAATATAAATATCTCTCACTTATTTAAA,0.152,–,–
ACAGACGAAGGAGCCGCAAAGAAGTTATTAACGGACGAATAATCCCTCAATATAAATATCTCTCACTTATTTAAA,0.0823,–,0.0519
ACAGACGAAGGAGCCGCAAAGAAGTTATTAACGGAGGAATAATCCCTCAATATAAATATCTCTCACTTATTTAAA,0.171,–,–
ACAGACGAAGGAGCCGCAAAGAAGTTATTAACGGATAAATAATCCCTCAATATAAATATCTCTCACTTATTTAAA,0.188,–,0.103
ACAGACGAAGGAGCCGCAAAGAAGTTATTAACGGATCAATAATCCCTCAATATAAATATCTCTCACTTATTTAAA,0.104,–,0.0668
ACAGACGAAGGAGCCGCAAAGAAGTTATTAACGGATGAAAAATCCCTCAATATAAATATCTCTCACTTATTTAAA,0.133,–,0.104
ACAGACGAAGGAGCCGCAAAGAAGTTATTAACGGATGAACAATCCCTCAATATAAATATCTCTCACTTATTTAAA,–,–,0.0917
ACAGACGAAGGAGCCGCAAAGAAGTTATTAACGGATGAAGAATCCCTCAATATAAATATCTCTCACTTATTTAAA,0.17,–,–
